These results are taken from publication PMC5464963 (Cell Reports, 2017).

B1: unfused (non-mMBP fused) wild-type OR, ENG E26-S337 (domain or fragment)
chain: ETVHCDLQPVGPERGEVTYTTSQVSKGCVAQAPNAILEVHVLFLEFPTGPSQLELTLQASKQNGTWPREVLLVLSVNSSVFLHLQALGIPLHLAYNSSLVTFQEPPGVNTTELPSFPKTQILEWAAERGPITSAAELNDPQSILLRLGQAQGSLSFCMLEASQDMGRTLEWRPRTPALVRGCHLEGVAGHKEAHILRVLPGHSAGPRTVTVKVELSCAPGDLDAVLILQGPPYVSWLIDANHNMQIWTTGEYSFKIFPEKNIRGFKLPDTPQGLLGEARMLNASIVASFVELPLASIVSLHASSCGGRLQTS
B2: ^MOR as used in biolayer interferometry (domain or fragment)
chain: B1 chain
B3: ^MZP (mMBP-fused ENG P338-G581, zona pellucida module) (domain or fragment, human, UniProt P17813 338-581, looked up)
chain: PAPIQTTPPKDTCSPELLMSLIQTKCADDAMTLVLKKELVAHLKCTITGLTFWDPSCEAEDRGDKFVLRSAYSSCGMQVSASMISNEAVVNILSSSSPQRKKVHCLNMDSLSFQLGLYLSPHFLQASNTIEPGQQSFVQVRVSPSVSEFLLQLDSCHLDLGPEGGTVELIQGRAAKGNCVSLLSPSPEGDPRFSFLLHFYTVPIPKTGTLSCTVALRPKTGSQDQEVHRTVFMRLNIISPDLSG
B4: bone morphogenetic protein 9 (BMP9), mature homodimer, untagged, expressed in HEK293 cells (ligand, human, UniProt Q9UK05 320-429, looked up)
chain: SAGAGSHCQKTSLRVNFEDIGWDSWIIAPKEYEAYECKGGCFFPLADDVTPTKHAIVQTLVHLKFPTKVGKACCVPTKLSPISVLYKDDMGVPTLKYHYEGMSVAECGCR
B5: full-length ectodomain of ENG (ECTO) as used in biolayer interferometry (receptor)
chain: ETVHCDLQPVGPERGEVTYTTSQVSKGCVAQAPNAILEVHVLFLEFPTGPSQLELTLQASKQNGTWPREVLLVLSVNSSVFLHLQALGIPLHLAYNSSLVTFQEPPGVNTTELPSFPKTQILEWAAERGPITSAAELNDPQSILLRLGQAQGSLSFCMLEASQDMGRTLEWRPRTPALVRGCHLEGVAGHKEAHILRVLPGHSAGPRTVTVKVELSCAPGDLDAVLILQGPPYVSWLIDANHNMQIWTTGEYSFKIFPEKNIRGFKLPDTPQGLLGEARMLNASIVASFVELPLASIVSLHASSCGGRLQTSPAPIQTTPPKDTCSPELLMSLIQTKCADDAMTLVLKKELVAHLKCTITGLTFWDPSCEAEDRGDKFVLRSAYSSCGMQVSASMISNEAVVNILSSSSPQRKKVHCLNMDSLSFQLGLYLSPHFLQASNTIEPGQQSFVQVRVSPSVSEFLLQLDSCHLDLGPEGGTVELIQGRAAKGNCVSLLSPSPEGDPRFSFLLHFYTVPIPKTGTLSCTVALRPKTGSQDQEVHRTVFMRLNIISPDLSGCTSKG
B6: His-^MECTO (His-tagged, mMBP-fused ENG ectodomain) (receptor, human, UniProt P17813 26-586, looked up)
chain: B5 chain
B7: ECTO-Myc (Myc-tagged ENG ectodomain) (receptor, human, UniProt P17813 26-586, looked up)
chain: B5 chain
B8: His-ECTO (His-tagged ENG ectodomain) of the purified His-ECTO-BMP9 complex (receptor, human, UniProt P17813 26-586, looked up)
chain: B5 chain

The target in data set [1] is T1, BMP9 as used in biolayer interferometry (human) (UniProt Q9UK05).
T1 sequence (Q9UK05 320-429, looked up): B4 chain
Put plainly: BLI. (In BLI a coated tip is dipped into the sample, and binding shifts an interference pattern.)

Data set [2] concerns the molecule itself. The data set is described as follows: non-reducing SDS-PAGE and immunoblot.
Data set [3] has as its target B8. Put plainly: SEC-MALS. On the technique in general: SEC sorts molecules by how far they enter the pores of the column.
The data set “SEC-MALS” concerns the molecule itself. The data set is described as follows: SEC-MALS.

Turning to B1, in data set [1], the Kd (in general, a measure of binding affinity in units of concentration) was 295 nM; the off-rate constant (koff) (as a rule, a measure of how fast the partners let go of each other) worked out at 0.0871 s⁻¹; the kon (usually the rate constant with which the complex forms) was 295000 M⁻¹ s⁻¹.

In data set [1], B2 showed a Kd of 179 nM, a koff of 0.0622 s⁻¹ and a kon of 349000 M⁻¹ s⁻¹.

For B3, in data set [2], the “stoichiometry N” value came out at 2.

As to B4, the “stoichiometry N” value in data set [3] is 1 2:2 (ENG chains : BMP9 chains).

Take B5: in data set [1], the Kd worked out at 9.81 nM, the koff is 0.00198 s⁻¹ and the kon came out at 200000 M⁻¹ s⁻¹.

In the case of B6, the “stoichiometry N” value in data set [2] was determined as 2.

In the case of B7, the “stoichiometry N” value in data set [2] is 2.

On to B8, for which, in “SEC-MALS”, the “stoichiometry N” value was 2.
